Data published in patent US20080119430A1.

Columns and labels:
Experiment in all cases: cell-based or functional assay
[1] = target: Cdc42 (active Cdc42-GTP, endogenous in HUVECs) (human) (UniProt P60953)
[2] = target: Rac (active Rac-GTP, endogenous in HUVECs) (human) (UniProt P31749)
[3] = target: Rac (active Rac-GTP, endogenous in NIH3T3 cells)

Cdc42 (active Cdc42-GTP, endogenous in HUVECs) (human), sequence (P60953 1-188 limits assumed): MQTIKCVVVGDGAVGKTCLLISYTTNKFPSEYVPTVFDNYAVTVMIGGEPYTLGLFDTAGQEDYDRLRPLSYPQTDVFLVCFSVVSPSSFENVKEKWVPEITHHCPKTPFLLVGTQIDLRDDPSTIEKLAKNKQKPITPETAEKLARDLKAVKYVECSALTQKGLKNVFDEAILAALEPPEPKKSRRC
Rac (active Rac-GTP, endogenous in HUVECs) (human), sequence (P31749 whole entry): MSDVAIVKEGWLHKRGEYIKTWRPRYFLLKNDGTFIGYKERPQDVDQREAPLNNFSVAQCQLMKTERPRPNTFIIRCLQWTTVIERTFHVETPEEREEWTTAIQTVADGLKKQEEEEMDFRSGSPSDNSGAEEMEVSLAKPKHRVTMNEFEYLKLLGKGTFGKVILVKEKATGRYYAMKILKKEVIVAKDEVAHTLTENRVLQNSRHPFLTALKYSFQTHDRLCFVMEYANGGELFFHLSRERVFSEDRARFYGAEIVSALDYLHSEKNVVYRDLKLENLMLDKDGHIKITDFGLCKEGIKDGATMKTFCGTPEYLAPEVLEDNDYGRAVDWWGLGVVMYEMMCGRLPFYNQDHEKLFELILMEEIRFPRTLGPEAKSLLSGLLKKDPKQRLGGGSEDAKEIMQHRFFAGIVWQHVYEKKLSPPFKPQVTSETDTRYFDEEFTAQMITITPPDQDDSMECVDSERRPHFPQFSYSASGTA

| Substance | fold increase in active Cdc42 in HUVECs after BNO69 knockdown with BNO69R, compared to empty vector [1] [fold] | fold increase in active Rac in HUVECs after BNO69 knockdown with BNO69R, compared to empty vector [2] [fold] | increase in Rac activity (Rac-GTP pull-down) in NIH3T3 cells after inhibition of BNO69 expression with antisense BNO69R [3] [fold] |
| --- | --- | --- | --- |
| BNO69 (endogenous protein in HUVECs, knocked down by adenoviral antisense BNO69R) (from UniProt Q8N264 131-748) (enzyme) | 1.1 | 1.1 |  |
| BNO69 (endogenous protein in NIH3T3 cells, knocked down by retroviral antisense BNO69R) (enzyme) |  |  | 3 |
